From article PMC4346194

Assays:
Assay in all cases: pull-down
[1] = biological target: GST-tagged ΔIBB-importin α1 (mouse) (UniProt P52293)
[2] = biological target: GST-tagged FL-importin α1 (mouse) (UniProt P52293)
[3] = biological target: GST-tagged ΔIBB-importin α7 (human) (UniProt O60684)
[4] = biological target: GST-tagged FL-importin α7 (human) (UniProt O60684)
[5] = biological target: GST-tagged ΔIBB-importin α3 (human) (UniProt O00629)
[6] = biological target: GST-tagged IBB3-importin α1 (human | mouse) (UniProt O00629)
[7] = biological target: GST-tagged FL-importin α3 (human) (UniProt O00629)
Sequence of GST-tagged FL-importin α3 (human) (O00629 whole entry): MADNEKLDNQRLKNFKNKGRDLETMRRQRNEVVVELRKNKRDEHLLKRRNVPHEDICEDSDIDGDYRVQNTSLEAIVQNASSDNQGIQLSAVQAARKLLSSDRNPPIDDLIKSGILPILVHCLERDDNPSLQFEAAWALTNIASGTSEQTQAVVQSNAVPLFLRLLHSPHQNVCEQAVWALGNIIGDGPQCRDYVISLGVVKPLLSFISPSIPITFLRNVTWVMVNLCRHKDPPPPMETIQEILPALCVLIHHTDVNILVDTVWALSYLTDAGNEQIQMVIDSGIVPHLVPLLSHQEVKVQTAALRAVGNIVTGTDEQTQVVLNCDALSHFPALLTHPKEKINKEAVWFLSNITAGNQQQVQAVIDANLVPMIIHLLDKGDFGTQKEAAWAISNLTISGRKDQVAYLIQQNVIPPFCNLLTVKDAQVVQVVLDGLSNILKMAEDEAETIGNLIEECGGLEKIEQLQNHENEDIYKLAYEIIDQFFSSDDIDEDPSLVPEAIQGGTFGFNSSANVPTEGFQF

[8] = biological target: GST-tagged IBB1-importin α3 (mouse | human) (UniProt P52293)

Sequence of MBP-tagged PB2-biNLS (res. 738-759) (P31345 738-759 limits assumed): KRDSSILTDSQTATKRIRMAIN
Sequence of GST-tagged ΔIBB-importin α7 (human) (O60684 59-536, stated change not applied): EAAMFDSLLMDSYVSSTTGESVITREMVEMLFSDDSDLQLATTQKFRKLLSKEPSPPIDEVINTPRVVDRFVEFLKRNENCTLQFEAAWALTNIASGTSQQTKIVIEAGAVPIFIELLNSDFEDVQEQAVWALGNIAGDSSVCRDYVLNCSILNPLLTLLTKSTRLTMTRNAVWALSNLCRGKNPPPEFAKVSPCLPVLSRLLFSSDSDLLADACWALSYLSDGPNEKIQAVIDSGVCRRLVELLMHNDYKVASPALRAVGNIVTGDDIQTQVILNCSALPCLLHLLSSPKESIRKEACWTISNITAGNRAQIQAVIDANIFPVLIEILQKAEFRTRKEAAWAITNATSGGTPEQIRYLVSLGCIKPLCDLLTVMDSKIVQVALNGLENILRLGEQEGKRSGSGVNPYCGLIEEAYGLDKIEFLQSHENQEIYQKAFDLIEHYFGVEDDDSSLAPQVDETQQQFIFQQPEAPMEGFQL

Row | Substance | percent of importin α bound to cargo [1] [%] | percent of importin α bound to cargo [2] [%] | percent of importin α bound to cargo [3] [%] | percent of importin α bound to cargo [4] [%] | percent of importin α bound to cargo [5] [%] | percent of importin α bound to cargo [6] [%] | percent of importin α bound to cargo [7] [%] | percent of importin α bound to cargo [8] [%]
1 | MBP-tagged PB2-NLD (res. 678-759) (from UniProt P31345 678-759) (domain or fragment) | 100 | 32 | 100 | 62 | 100 | 70 |  | 
2 | MBP-tagged PB2-biNLS (res. 738-759) (from UniProt P31345 738-759) (peptide) | 51 | 7 | 81 | 21 | 27 |  | 7 | 
3 | MBP-tagged nucleoplasmin NLS (NP-NLS, res. 155-170) (from UniProt P05221 155-170) (peptide) |  |  |  |  | 45 | 57 |  | 12
